The values that follow come from patent US20260263609A1 (NEW YORK UNIVERSITY, published 2026).

In this assay the target is T1, NRAS (human, UniProt P01111 1-174, limits assumed).
T1 construct: also called Neuroblastoma-RAS; NRAS (WT)
As to the kind of experiment: yeast display, cells sorted for binding to NRAS (WT).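 Note: Yeast-displayed monobody variants with one or two residue substitutions, monobody sequences read from cells recovered by sorting for binding to wild-type NRAS.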

B1: Mb(NRAS_24) with the FG loop of SEQ ID NO: 15 (designed binder)
chain: VSSVPTKLEVVAATPTSLLISWDAPAVTVDFYVITYGETGGYAWAYQEFKVPGSKSTATISGLSPGVDYTITVYASQVIGAIWKYYSPISINYRT
notes: length of the loop entry not visible
For B1, the binding result is listed as “binds”.

B2: Mb(NRAS_24) with the FG loop of SEQ ID NO: 47 (designed binder)
chain: VSSVPTKLEVVAATPTSLLISWDAPAVTVDFYVITYGETGGYAWAYQEFKVPGSKSTATISGLSPGVDYTITVYAYQVIHHIWKYYSPISINYRT
notes: as for B1
For the molecule B2, the binding result is “binds”.

B3: Mb(NRAS_24) with the FG loop of SEQ ID NO: 46 (designed binder)
chain: VSSVPTKLEVVAATPTSLLISWDAPAVTVDFYVITYGETGGYAWAYQEFKVPGSKSTATISGLSPGVDYTITVYAYQVIGALWKYYSPISINYRT
notes: as for B1
For B3, the binding result was “binds”.

B4: Mb(NRAS_24) with the FG loop of SEQ ID NO: 44 (designed binder)
chain: VSSVPTKLEVVAATPTSLLISWDAPAVTVDFYVITYGETGGYAWAYQEFKVPGSKSTATISGLSPGVDYTITVYAYQVIEYIWKYYSPISINYRT
notes: as for B1
With B4, the binding result is given as “binds”.

B5: Mb(NRAS_24) with the FG loop of SEQ ID NO: 16 (designed binder)
chain: VSSVPTKLEVVAATPTSLLISWDAPAVTVDFYVITYGETGGYAWAYQEFKVPGSKSTATISGLSPGVDYTITVYAYHVIGAIWKYYSPISINYRT
notes: as for B1
In the case of B5, the binding result was “binds”.

B6: Mb(NRAS_24) with the FG loop of SEQ ID NO: 25 (designed binder)
chain: VSSVPTKLEVVAATPTSLLISWDAPAVTVDFYVITYGETGGYAWAYQEFKVPGSKSTATISGLSPGVDYTITVYAYQLDGAIWKYYSPISINYRT
notes: as for B1
Take B6: the binding result is recorded as “binds”.

B7: Mb(NRAS_24) with the FG loop of SEQ ID NO: 39 (designed binder)
chain: VSSVPTKLEVVAATPTSLLISWDAPAVTVDFYVITYGETGGYAWAYQEFKVPGSKSTATISGLSPGVDYTITVYAYQVIDHIWKYYSPISINYRT
notes: as for B1
Regarding B7, the binding result is “binds”.

B8: Mb(NRAS_24) with the FG loop of SEQ ID NO: 29 (designed binder)
chain: VSSVPTKLEVVAATPTSLLISWDAPAVTVDFYVITYGETGGYAWAYQEFKVPGSKSTATISGLSPGVDYTITVYAYQLYGAIWKYYSPISINYRT
notes: as for B1
Turning to B8, the binding result was “binds”.

B9: Mb(NRAS_24) with the FG loop of SEQ ID NO: 26 (designed binder)
chain: VSSVPTKLEVVAATPTSLLISWDAPAVTVDFYVITYGETGGYAWAYQEFKVPGSKSTATISGLSPGVDYTITVYAYQLEGAIWKYYSPISINYRT
notes: as for B1
B9: the binding result is recorded as “binds”.

B10: Mb(NRAS_24) with the FG loop of SEQ ID NO: 33 (designed binder)
chain: VSSVPTKLEVVAATPTSLLISWDAPAVTVDFYVITYGETGGYAWAYQEFKVPGSKSTATISGLSPGVDYTITVYAYQTLGAIWKYYSPISINYRT
notes: as for B1
As for B10, the binding result is listed as “binds”.

B11: Mb(NRAS_24) with the FG loop of SEQ ID NO: 31 (designed binder)
chain: VSSVPTKLEVVAATPTSLLISWDAPAVTVDFYVITYGETGGYAWAYQEFKVPGSKSTATISGLSPGVDYTITVYAYQTEGAIWKYYSPISINYRT
notes: as for B1
For B11, the binding result is given as “binds”.

B12: Mb(NRAS_24) with the FG loop of SEQ ID NO: 38 (designed binder)
chain: VSSVPTKLEVVAATPTSLLISWDAPAVTVDFYVITYGETGGYAWAYQEFKVPGSKSTATISGLSPGVDYTITVYAYQVIAYIWKYYSPISINYRT
notes: as for B1
As to B12, the binding result was “binds”.

B13: Mb(NRAS_24) with the FG loop of SEQ ID NO: 41 (designed binder)
chain: VSSVPTKLEVVAATPTSLLISWDAPAVTVDFYVITYGETGGYAWAYQEFKVPGSKSTATISGLSPGVDYTITVYAYQVIDYIWKYYSPISINYRT
notes: as for B1
For B13, the binding result is reported as “binds”.

B14: Mb(NRAS_24) with the FG loop of SEQ ID NO: 34 (designed binder)
chain: VSSVPTKLEVVAATPTSLLISWDAPAVTVDFYVITYGETGGYAWAYQEFKVPGSKSTATISGLSPGVDYTITVYAYQTVGAIWKYYSPISINYRT
notes: as for B1
In the case of B14, the binding result is reported as “binds”.

B15: Mb(NRAS_24) with the FG loop of SEQ ID NO: 17 (designed binder)
chain: VSSVPTKLEVVAATPTSLLISWDAPAVTVDFYVITYGETGGYAWAYQEFKVPGSKSTATISGLSPGVDYTITVYAYQIDGAIWKYYSPISINYRT
notes: as for B1
Consider B15, for which the binding result is “binds”.

B16: Mb(NRAS_24) with the FG loop of SEQ ID NO: 23 (designed binder)
chain: VSSVPTKLEVVAATPTSLLISWDAPAVTVDFYVITYGETGGYAWAYQEFKVPGSKSTATISGLSPGVDYTITVYAYQIVGAIWKYYSPISINYRT
notes: as for B1
On to B16, for which the binding result is recorded as “binds”.

B17: Mb(NRAS_24) with the FG loop of SEQ ID NO: 37 (designed binder)
chain: VSSVPTKLEVVAATPTSLLISWDAPAVTVDFYVITYGETGGYAWAYQEFKVPGSKSTATISGLSPGVDYTITVYAYQVIASIWKYYSPISINYRT
notes: as for B1
As for B17, the binding result is recorded as “binds”.

B18: Mb(NRAS_24) with the FG loop of SEQ ID NO: 50 (designed binder)
chain: VSSVPTKLEVVAATPTSLLISWDAPAVTVDFYVITYGETGGYAWAYQEFKVPGSKSTATISGLSPGVDYTITVYAYQVIKHIWKYYSPISINYRT
notes: as for B1
For B18, the binding result is recorded as “binds”.

B19: Mb(NRAS_24) with the FG loop of SEQ ID NO: 36 (designed binder)
chain: VSSVPTKLEVVAATPTSLLISWDAPAVTVDFYVITYGETGGYAWAYQEFKVPGSKSTATISGLSPGVDYTITVYAYQVIAHIWKYYSPISINYRT
notes: as for B1
Consider B19, for which the binding result is “binds”.

B20: Mb(NRAS_24) with the FG loop of SEQ ID NO: 27 (designed binder)
chain: VSSVPTKLEVVAATPTSLLISWDAPAVTVDFYVITYGETGGYAWAYQEFKVPGSKSTATISGLSPGVDYTITVYAYQLHGAIWKYYSPISINYRT
notes: as for B1
Regarding B20, the binding result is “binds”.

B21: Mb(NRAS_24) with the FG loop of SEQ ID NO: 40 (designed binder)
chain: VSSVPTKLEVVAATPTSLLISWDAPAVTVDFYVITYGETGGYAWAYQEFKVPGSKSTATISGLSPGVDYTITVYAYQVIDSIWKYYSPISINYRT
notes: as for B1
Turning to B21, the binding result was “binds”.

B22: Mb(NRAS_24) with the FG loop of SEQ ID NO: 45 (designed binder)
chain: VSSVPTKLEVVAATPTSLLISWDAPAVTVDFYVITYGETGGYAWAYQEFKVPGSKSTATISGLSPGVDYTITVYAYQVIGAICKYYSPISINYRT
notes: as for B1
For the molecule B22, the binding result is “binds”.

B23: Mb(NRAS_24) with the FG loop of SEQ ID NO: 21 (designed binder)
chain: VSSVPTKLEVVAATPTSLLISWDAPAVTVDFYVITYGETGGYAWAYQEFKVPGSKSTATISGLSPGVDYTITVYAYQILGAIWKYYSPISINYRT
notes: as for B1
On to B23, for which the binding result is listed as “binds”.

B24: Mb(NRAS_24) with the FG loop of SEQ ID NO: 30 (designed binder)
chain: VSSVPTKLEVVAATPTSLLISWDAPAVTVDFYVITYGETGGYAWAYQEFKVPGSKSTATISGLSPGVDYTITVYAYQTDGAIWKYYSPISINYRT
notes: as for B1
As for B24, the binding result is “binds”.

B25: Mb(NRAS_24) with the FG loop of SEQ ID NO: 24 (designed binder)
chain: VSSVPTKLEVVAATPTSLLISWDAPAVTVDFYVITYGETGGYAWAYQEFKVPGSKSTATISGLSPGVDYTITVYAYQIYGAIWKYYSPISINYRT
notes: as for B1
B25: the binding result is given as “binds”.

B26: Mb(NRAS_24) with the FG loop of SEQ ID NO: 20 (designed binder)
chain: VSSVPTKLEVVAATPTSLLISWDAPAVTVDFYVITYGETGGYAWAYQEFKVPGSKSTATISGLSPGVDYTITVYAYQIKGAIWKYYSPISINYRT
notes: as for B1
B26: the binding result was “binds”.

B27: Mb(NRAS_24) with the FG loop of SEQ ID NO: 32 (designed binder)
chain: VSSVPTKLEVVAATPTSLLISWDAPAVTVDFYVITYGETGGYAWAYQEFKVPGSKSTATISGLSPGVDYTITVYAYQTHGAIWKYYSPISINYRT
notes: as for B1
In the case of B27, the binding result is recorded as “binds”.

B28: Mb(NRAS_24) with the FG loop of SEQ ID NO: 48 (designed binder)
chain: VSSVPTKLEVVAATPTSLLISWDAPAVTVDFYVITYGETGGYAWAYQEFKVPGSKSTATISGLSPGVDYTITVYAYQVIHSIWKYYSPISINYRT
notes: as for B1
For the molecule B28, the binding result is recorded as “binds”.

B29: Mb(NRAS_24) with the FG loop of SEQ ID NO: 42 (designed binder)
chain: VSSVPTKLEVVAATPTSLLISWDAPAVTVDFYVITYGETGGYAWAYQEFKVPGSKSTATISGLSPGVDYTITVYAYQVIEHIWKYYSPISINYRT
notes: as for B1
For B29, the binding result is on record as “binds”.

B30: Mb(NRAS_24) with the FG loop of SEQ ID NO: 28 (designed binder)
chain: VSSVPTKLEVVAATPTSLLISWDAPAVTVDFYVITYGETGGYAWAYQEFKVPGSKSTATISGLSPGVDYTITVYAYQLLGAIWKYYSPISINYRT
notes: as for B1
Take B30: the binding result is “binds”.

B31: Mb(NRAS_24) with the FG loop of SEQ ID NO: 18 (designed binder)
chain: VSSVPTKLEVVAATPTSLLISWDAPAVTVDFYVITYGETGGYAWAYQEFKVPGSKSTATISGLSPGVDYTITVYAYQIEGAIWKYYSPISINYRT
notes: as for B1
Take B31: the binding result is “binds”.

B32: Mb(NRAS_24) with the FG loop of SEQ ID NO: 19 (designed binder)
chain: VSSVPTKLEVVAATPTSLLISWDAPAVTVDFYVITYGETGGYAWAYQEFKVPGSKSTATISGLSPGVDYTITVYAYQIHGAIWKYYSPISINYRT
notes: as for B1
As to B32, the binding result was “binds”.

B33: Mb(NRAS_24) with the FG loop of SEQ ID NO: 35 (designed binder)
chain: VSSVPTKLEVVAATPTSLLISWDAPAVTVDFYVITYGETGGYAWAYQEFKVPGSKSTATISGLSPGVDYTITVYAYQTYGAIWKYYSPISINYRT
notes: as for B1
For B33, the binding result is on record as “binds”.

B34: Mb(NRAS_24) with the FG loop of SEQ ID NO: 43 (designed binder)
chain: VSSVPTKLEVVAATPTSLLISWDAPAVTVDFYVITYGETGGYAWAYQEFKVPGSKSTATISGLSPGVDYTITVYAYQVIESIWKYYSPISINYRT
notes: as for B1
As to B34, the binding result is listed as “binds”.

B35: Mb(NRAS_24) with the FG loop of SEQ ID NO: 49 (designed binder)
chain: VSSVPTKLEVVAATPTSLLISWDAPAVTVDFYVITYGETGGYAWAYQEFKVPGSKSTATISGLSPGVDYTITVYAYQVIHYIWKYYSPISINYRT
notes: as for B1
With B35, the binding result is “binds”.

B36: Mb(NRAS_24) with the FG loop of SEQ ID NO: 22 (designed binder)
chain: VSSVPTKLEVVAATPTSLLISWDAPAVTVDFYVITYGETGGYAWAYQEFKVPGSKSTATISGLSPGVDYTITVYAYQIRGAIWKYYSPISINYRT
notes: as for B1
Regarding B36, the binding result is “binds”.
